Experimental data from doi:10.1101/498196 (bioRxiv, 2018).

B1: PCDH1 EC1-5 C375S C548S (domain or fragment)
chain: TRVVYKVPEEQPPNTLIGSLAADYGFPDVGHLYKLEVGAPYLRVDGKTGDIFTTETSIDREGLRECQNQLPGDPCILEFEVSITDLVQNGSPRLLEGQIEVQDINDNTPNFASPVITLAIPENTNIGSLFPIPLASDRDAGPNGVASYELQAGPEAQELFGLQVAEDQEEKQPQLIVMGNLDRERWDSYDLTIKVQDGGSPPRASSALLRVTVLDTNDNAPKFERPSYEAELSENSPIGHSVIQVKANDSDQGANAEIEYTFHQAPEVVRRLLRLDRNTGLITVQGPVDREDLSTLRFSVLAKDRGTNPKSARAQVVVTVKDMNDNAPTIEIRGIGLVTHQDGMANISEDVAEETAVALVQVSDRDEGENAAVTSVVAGDVPFQLRQASETGSDSKKKYFLQTTTPLDYEKVKDYTIEIVAVDSGNPPLSSTNSLKVQVVDVNDNAPVFTQSVTEVAFPENNKPGEVIAEITASDADSGSNAELVYSLEPEPAAKGLFTISPETGEIQVKTSLDREQRESYELKVVAADRGSPSLQGTATVLVNVLDSNDND
B2: PCDH1 EC1-5 C375S C548S V115R (domain or fragment)
chain: TRVVYKVPEEQPPNTLIGSLAADYGFPDVGHLYKLEVGAPYLRVDGKTGDIFTTETSIDREGLRECQNQLPGDPCILEFEVSITDLVQNGSPRLLEGQIEVQDINDNTPNFASPRITLAIPENTNIGSLFPIPLASDRDAGPNGVASYELQAGPEAQELFGLQVAEDQEEKQPQLIVMGNLDRERWDSYDLTIKVQDGGSPPRASSALLRVTVLDTNDNAPKFERPSYEAELSENSPIGHSVIQVKANDSDQGANAEIEYTFHQAPEVVRRLLRLDRNTGLITVQGPVDREDLSTLRFSVLAKDRGTNPKSARAQVVVTVKDMNDNAPTIEIRGIGLVTHQDGMANISEDVAEETAVALVQVSDRDEGENAAVTSVVAGDVPFQLRQASETGSDSKKKYFLQTTTPLDYEKVKDYTIEIVAVDSGNPPLSSTNSLKVQVVDVNDNAPVFTQSVTEVAFPENNKPGEVIAEITASDADSGSNAELVYSLEPEPAAKGLFTISPETGEIQVKTSLDREQRESYELKVVAADRGSPSLQGTATVLVNVLDSNDND
B3: PCDH1 EC1-7Fc (Fc fusion)
chain: TRVVYKVPEEQPPNTLIGSLAADYGFPDVGHLYKLEVGAPYLRVDGKTGDIFTTETSIDREGLRECQNQLPGDPCILEFEVSITDLVQNGSPRLLEGQIEVQDINDNTPNFASPVITLAIPENTNIGSLFPIPLASDRDAGPNGVASYELQAGPEAQELFGLQVAEDQEEKQPQLIVMGNLDRERWDSYDLTIKVQDGGSPPRASSALLRVTVLDTNDNAPKFERPSYEAELSENSPIGHSVIQVKANDSDQGANAEIEYTFHQAPEVVRRLLRLDRNTGLITVQGPVDREDLSTLRFSVLAKDRGTNPKSARAQVVVTVKDMNDNAPTIEIRGIGLVTHQDGMANISEDVAEETAVALVQVSDRDEGENAAVTCVVAGDVPFQLRQASETGSDSKKKYFLQTTTPLDYEKVKDYTIEIVAVDSGNPPLSSTNSLKVQVVDVNDNAPVFTQSVTEVAFPENNKPGEVIAEITASDADSGSNAELVYSLEPEPAAKGLFTISPETGEIQVKTSLDREQRESYELKVVAADRGSPSLQGTATVLVNVLDCNDNDPKFMLSGYNFSVMENMPALSPVGMVTVIDGDKGENAQVQLSVEQDNGDFVIQNGTGTILSSLSFDREQQSTYTFQLKAVDGGVPPRSAYVGVTINVLDENDNAPYITAPSNTSHKLLTPQTRLGETVSQVAAEDFDSGVNAELIYSIAGGNPYGLFQIGSHSGAITLEKEIERRHHGLHRLVVKVSDRGKPPRYGTALVHLYVNETLANRTLLETLLGHSLDTPLDIDIAGDPEYERSKQRGN
B4: PCDH1 EC1-7Fc C375S C548S (Fc fusion)
chain: TRVVYKVPEEQPPNTLIGSLAADYGFPDVGHLYKLEVGAPYLRVDGKTGDIFTTETSIDREGLRECQNQLPGDPCILEFEVSITDLVQNGSPRLLEGQIEVQDINDNTPNFASPVITLAIPENTNIGSLFPIPLASDRDAGPNGVASYELQAGPEAQELFGLQVAEDQEEKQPQLIVMGNLDRERWDSYDLTIKVQDGGSPPRASSALLRVTVLDTNDNAPKFERPSYEAELSENSPIGHSVIQVKANDSDQGANAEIEYTFHQAPEVVRRLLRLDRNTGLITVQGPVDREDLSTLRFSVLAKDRGTNPKSARAQVVVTVKDMNDNAPTIEIRGIGLVTHQDGMANISEDVAEETAVALVQVSDRDEGENAAVTSVVAGDVPFQLRQASETGSDSKKKYFLQTTTPLDYEKVKDYTIEIVAVDSGNPPLSSTNSLKVQVVDVNDNAPVFTQSVTEVAFPENNKPGEVIAEITASDADSGSNAELVYSLEPEPAAKGLFTISPETGEIQVKTSLDREQRESYELKVVAADRGSPSLQGTATVLVNVLDSNDNDPKFMLSGYNFSVMENMPALSPVGMVTVIDGDKGENAQVQLSVEQDNGDFVIQNGTGTILSSLSFDREQQSTYTFQLKAVDGGVPPRSAYVGVTINVLDENDNAPYITAPSNTSHKLLTPQTRLGETVSQVAAEDFDSGVNAELIYSIAGGNPYGLFQIGSHSGAITLEKEIERRHHGLHRLVVKVSDRGKPPRYGTALVHLYVNETLANRTLLETLLGHSLDTPLDIDIAGDPEYERSKQRGN
B5: PCDH1 EC1-7Fc V115R (Fc fusion)
chain: TRVVYKVPEEQPPNTLIGSLAADYGFPDVGHLYKLEVGAPYLRVDGKTGDIFTTETSIDREGLRECQNQLPGDPCILEFEVSITDLVQNGSPRLLEGQIEVQDINDNTPNFASPRITLAIPENTNIGSLFPIPLASDRDAGPNGVASYELQAGPEAQELFGLQVAEDQEEKQPQLIVMGNLDRERWDSYDLTIKVQDGGSPPRASSALLRVTVLDTNDNAPKFERPSYEAELSENSPIGHSVIQVKANDSDQGANAEIEYTFHQAPEVVRRLLRLDRNTGLITVQGPVDREDLSTLRFSVLAKDRGTNPKSARAQVVVTVKDMNDNAPTIEIRGIGLVTHQDGMANISEDVAEETAVALVQVSDRDEGENAAVTCVVAGDVPFQLRQASETGSDSKKKYFLQTTTPLDYEKVKDYTIEIVAVDSGNPPLSSTNSLKVQVVDVNDNAPVFTQSVTEVAFPENNKPGEVIAEITASDADSGSNAELVYSLEPEPAAKGLFTISPETGEIQVKTSLDREQRESYELKVVAADRGSPSLQGTATVLVNVLDCNDNDPKFMLSGYNFSVMENMPALSPVGMVTVIDGDKGENAQVQLSVEQDNGDFVIQNGTGTILSSLSFDREQQSTYTFQLKAVDGGVPPRSAYVGVTINVLDENDNAPYITAPSNTSHKLLTPQTRLGETVSQVAAEDFDSGVNAELIYSIAGGNPYGLFQIGSHSGAITLEKEIERRHHGLHRLVVKVSDRGKPPRYGTALVHLYVNETLANRTLLETLLGHSLDTPLDIDIAGDPEYERSKQRGN
B6: hs PCDH1 EC1-4bc (domain or fragment)
chain: TRVVYKVPEEQPPNTLIGSLAADYGFPDVGHLYKLEVGAPYLRVDGKTGDIFTTETSIDREGLRECQNQLPGDPCILEFEVSITDLVQNGSPRLLEGQIEVQDINDNTPNFASPVITLAIPENTNIGSLFPIPLASDRDAGPNGVASYELQAGPEAQELFGLQVAEDQEEKQPQLIVMGNLDRERWDSYDLTIKVQDGGSPPRASSALLRVTVLDTNDNAPKFERPSYEAELSENSPIGHSVIQVKANDSDQGANAEIEYTFHQAPEVVRRLLRLDRNTGLITVQGPVDREDLSTLRFSVLAKDRGTNPKSARAQVVVTVKDMNDNAPTIEIRGIGLVTHQDGMANISEDVAEETAVALVQVSDRDEGENAAVTCVVAGDVPFQLRQASETGSDSKKKYFLQTTTPLDYEKVKDYTIEIVAVDSGNPPLSSTNSLKVQVVDVNDNA
B7: PCDH1 EC1-4 C375S (domain or fragment)
chain: TRVVYKVPEEQPPNTLIGSLAADYGFPDVGHLYKLEVGAPYLRVDGKTGDIFTTETSIDREGLRECQNQLPGDPCILEFEVSITDLVQNGSPRLLEGQIEVQDINDNTPNFASPVITLAIPENTNIGSLFPIPLASDRDAGPNGVASYELQAGPEAQELFGLQVAEDQEEKQPQLIVMGNLDRERWDSYDLTIKVQDGGSPPRASSALLRVTVLDTNDNAPKFERPSYEAELSENSPIGHSVIQVKANDSDQGANAEIEYTFHQAPEVVRRLLRLDRNTGLITVQGPVDREDLSTLRFSVLAKDRGTNPKSARAQVVVTVKDMNDNAPTIEIRGIGLVTHQDGMANISEDVAEETAVALVQVSDRDEGENAAVTSVVAGDVPFQLRQASETGSDSKKKYFLQTTTPLDYEKVKDYTIEIVAVDSGNPPLSSTNSLKVQVVDVNDNA
B8: PCDH1 EC1-4Fc (Fc fusion)
chain: TRVVYKVPEEQPPNTLIGSLAADYGFPDVGHLYKLEVGAPYLRVDGKTGDIFTTETSIDREGLRECQNQLPGDPCILEFEVSITDLVQNGSPRLLEGQIEVQDINDNTPNFASPVITLAIPENTNIGSLFPIPLASDRDAGPNGVASYELQAGPEAQELFGLQVAEDQEEKQPQLIVMGNLDRERWDSYDLTIKVQDGGSPPRASSALLRVTVLDTNDNAPKFERPSYEAELSENSPIGHSVIQVKANDSDQGANAEIEYTFHQAPEVVRRLLRLDRNTGLITVQGPVDREDLSTLRFSVLAKDRGTNPKSARAQVVVTVKDMNDNAPTIEIRGIGLVTHQDGMANISEDVAEETAVALVQVSDRDEGENAAVTCVVAGDVPFQLRQASETGSDSKKKYFLQTTTPLDYEKVKDYTIEIVAVDSGNPPLSSTNSLKVQVVDVNDNA
B9: hs PCDH1 EC1-4mc (domain or fragment)
chain: TRVVYKVPEEQPPNTLIGSLAADYGFPDVGHLYKLEVGAPYLRVDGKTGDIFTTETSIDREGLRECQNQLPGDPCILEFEVSITDLVQNGSPRLLEGQIEVQDINDNTPNFASPVITLAIPENTNIGSLFPIPLASDRDAGPNGVASYELQAGPEAQELFGLQVAEDQEEKQPQLIVMGNLDRERWDSYDLTIKVQDGGSPPRASSALLRVTVLDTNDNAPKFERPSYEAELSENSPIGHSVIQVKANDSDQGANAEIEYTFHQAPEVVRRLLRLDRNTGLITVQGPVDREDLSTLRFSVLAKDRGTNPKSARAQVVVTVKDMNDNAPTIEIRGIGLVTHQDGMANISEDVAEETAVALVQVSDRDEGENAAVTCVVAGDVPFQLRQASETGSDSKKKYFLQTTTPLDYEKVKDYTIEIVAVDSGNPPLSSTNSLKVQVVDVNDNA
modifications: sugars observed at N248 (N-linked) and S430 (O-linked)

Columns and labels:
[1] = biological target: the molecule itself; assay: AUC
[2] = biological target: the molecule itself; assay: bead aggregation assay
[3] = biological target: the molecule itself; assay: crystal structure

| Protein | stoichiometry N [1] | binding result [2] | further results |
| --- | --- | --- | --- |
| B1 | 2 | – | Kd [1]: < 5 µM |
| B2 | 2 | – | – |
| B3 | – | binds | – |
| B4 | – | binds | – |
| B5 | – | binds | – |
| B6 | – | – | binding result [3]: binds |
| B7 | 2 | – | Kd [1]: < 5 µM |
| B8 | – | binds | – |
| B9 | – | – | binding result [3]: binds |
